# Measured values reported in PMC9279676, “ERK2 MAP kinase regulates SUFU binding by multisite phosphorylation of GLI1” (Life Science Alliance, 2022).
# B1: GLI1_(1-232), wild type, 35S-radiolabeled [modified: [35S]-methionine label; [35S]-methionine label] [human] / GST-SUFU (fusion of GST to full-length human SUFU) [human] (parent)
# chain 1: MFNSMTPPPISSYGEPCCLRPLPSQGAPSVGTEGLSGPPFCHQANLMSGPHSYGPARETNSCTEGPLFSSPRSAVKLTKKRALSISPLSDASLDLQTVIRTSPSSLVAFINSRCTSPGGSYGHLSIGTMSPSLGFPAQMNHQKGPSPSFGVQPCGPHDSARGGMIPHPQSRGPFPTCQLKSELDMLVGKCREEPLEGDMSSPNSTGIQDPLLGMLDGREDLEREEKREPESV
# chain 2: MAELRPSGAPGPTAPPAPGPTAPPAFASLFPPGLHAIYGECRRLYPDQPNPLQVTAIVKYWLGGPDPLDYVSMYRNVGSPSANIPEHWHYISFGLSDLYGDNRVHEFTGTDGPSGFGFELTFRLKRETGESAPPTWPAELMQGLARYVFQSENTFCSGDHVSWHSPLDNSESRIQHMLLTEDPQMQPVQTPFGVVTFLQIVGVCTEELHSAQQWNGQGILELLRTVPIAGGPWLITDMRRGETIFEIDPHLQERVDKGIETDGSNLSGVSAKCAWDDLSRPPEDDEDSRSICIGTQPRRLSGKDTEQIRETLRRGLEINSKPVLPPINPQRQNGLAHDRAPSRKDSLESDSSTAIIPHELIRTRQLESVHLKFNQESGALIPLCLRGRLLHGRHFTYKSITGDMAITFVSTGVEGAFATEEHPYAAHGPWLQILLTEEFVEKMLEDLEDLTSPEEFKLPKEYSWPEKKLKVSILPDVVFDSPLH
# Variants of: B1
# Assay: GST-SUFU pull-down binding assay with 35S-radiolabeled in vitro-translated GLI1
# Details: 10 nM GST-SUFU, parent: 55, read off a plot
row,response,Variant
1,33 % GLI1 Bound,chain 1 MFNSMTPPPISSYGEPCCLRPLPSQGAPSVGTEGLSGPPFCHQANLMSGPHSYGPARETNSCTEGPLFSSPRSAVKLTKKRALSISPLSDASLDLQTVIRTSPSSLVAFINSRCTSPGGSYGHLSIGTMEPSLGFPAQMNHQKGPSPSFGVQPCGPHDSARGGMIPHPQSRGPFPTCQLKSELDMLVGKCREEPLEGDMSSPNSTGIQDPLLGMLDGREDLEREEKREPESV [chain 1 S130E]

# Same assay, conditions: 20 nM GST-SUFU, parent: 67, read off a plot
row,response,Variant
1,52 % GLI1 Bound,chain 1 MFNSMTPPPISSYGEPCCLRPLPSQGAPSVGTEGLSGPPFCHQANLMSGPHSYGPARETNSCTEGPLFSSPRSAVKLTKKRALSISPLSDASLDLQTVIRTSPSSLVAFINSRCTSPGGSYGHLSIGTMEPSLGFPAQMNHQKGPSPSFGVQPCGPHDSARGGMIPHPQSRGPFPTCQLKSELDMLVGKCREEPLEGDMSSPNSTGIQDPLLGMLDGREDLEREEKREPESV [chain 1 S130E]

# Same assay, conditions: 40 nM GST-SUFU, parent: 80, read off a plot
row,response,Variant
1,61 % GLI1 Bound,chain 1 MFNSMTPPPISSYGEPCCLRPLPSQGAPSVGTEGLSGPPFCHQANLMSGPHSYGPARETNSCTEGPLFSSPRSAVKLTKKRALSISPLSDASLDLQTVIRTSPSSLVAFINSRCTSPGGSYGHLSIGTMEPSLGFPAQMNHQKGPSPSFGVQPCGPHDSARGGMIPHPQSRGPFPTCQLKSELDMLVGKCREEPLEGDMSSPNSTGIQDPLLGMLDGREDLEREEKREPESV [chain 1 S130E]

# Same assay, conditions: 80 nM GST-SUFU, parent: 95, read off a plot
row,response,Variant
1,72 % GLI1 Bound,chain 1 MFNSMTPPPISSYGEPCCLRPLPSQGAPSVGTEGLSGPPFCHQANLMSGPHSYGPARETNSCTEGPLFSSPRSAVKLTKKRALSISPLSDASLDLQTVIRTSPSSLVAFINSRCTSPGGSYGHLSIGTMEPSLGFPAQMNHQKGPSPSFGVQPCGPHDSARGGMIPHPQSRGPFPTCQLKSELDMLVGKCREEPLEGDMSSPNSTGIQDPLLGMLDGREDLEREEKREPESV [chain 1 S130E]
